Measurements from patent US7432061B2, “Assays for measuring matrix metalloproteinase activities” (BioZyme, Inc., priority 2002, dated 2008).

Target: T1, gelatinase A (Homo sapiens, UniProt P08253)
T1 sequence (P08253 110-660): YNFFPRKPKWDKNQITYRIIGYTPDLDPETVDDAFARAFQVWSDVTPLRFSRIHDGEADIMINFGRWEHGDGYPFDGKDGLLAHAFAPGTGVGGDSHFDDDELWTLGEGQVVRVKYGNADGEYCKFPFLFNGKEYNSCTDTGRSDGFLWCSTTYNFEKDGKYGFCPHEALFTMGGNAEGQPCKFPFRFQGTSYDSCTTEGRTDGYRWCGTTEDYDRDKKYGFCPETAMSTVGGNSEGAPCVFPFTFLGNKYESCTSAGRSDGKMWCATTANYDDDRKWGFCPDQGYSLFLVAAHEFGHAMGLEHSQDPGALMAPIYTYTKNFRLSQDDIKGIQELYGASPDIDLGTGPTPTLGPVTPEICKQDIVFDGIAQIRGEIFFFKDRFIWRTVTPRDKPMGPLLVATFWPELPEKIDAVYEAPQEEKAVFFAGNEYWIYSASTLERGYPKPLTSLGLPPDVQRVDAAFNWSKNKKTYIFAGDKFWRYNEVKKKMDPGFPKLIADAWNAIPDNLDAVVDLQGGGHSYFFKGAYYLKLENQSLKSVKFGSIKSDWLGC
Experiment: Inhibition with type II collagen, FlSub3 cleavage
Format: biochemical
Conditions: for Improvement In Selectivity (Gel-A v Col-3): 44 ug/ml Type II Collagen vs no Type II Collagen, FlSb3; for Average Percent Inhibition from 1.1 to 6.6 Hours / Average Percent Inhibition: GELA(.025 nM)

Substance: Type II Collagen: bovine type II collagen, full length MMP substrate used as inhibitor of gelatinases
- Improvement In Selectivity (Gel-A v Col-3): 80 fold
- Improvement In Selectivity (Gel-A v Col-3) (listed as collagen): approximately 80 fold
- Average Percent Inhibition from 1.1 to 6.6 Hours (Type II Collagen 0.18 ug/ml): 2%
- Average Percent Inhibition from 1.1 to 6.6 Hours (Type II Collagen 0.54 ug/ml): 6%
- Average Percent Inhibition from 1.1 to 6.6 Hours (Type II Collagen 1.63 ug/ml): −52%
- Average Percent Inhibition from 1.1 to 6.6 Hours (Type II Collagen 4.89 ug/ml): 32%
- Average Percent Inhibition from 1.1 to 6.6 Hours (Type II Collagen 14.67 ug/ml): 56%
- Average Percent Inhibition from 1.1 to 6.6 Hours (Type II Collagen 44.00 ug/ml): 83%
- Average Percent Inhibition (TypeIICOL(1.6 ug/ul), FISb3, hour 0.10 to 1.10): −27%
- Average Percent Inhibition (TypeIICOL(1.6 ug/ul), FISb3, hour 1.10 to 2.10): 4%
- Average Percent Inhibition (TypeIICOL(1.6 ug/ul), FISb3, hour 1.10 to 6.60): −52%
- Average Percent Inhibition (TypeIICOL(1.6 ug/ul), FISb3, hour 2.10 to 3.10): −11%
- Average Percent Inhibition (TypeIICOL(1.6 ug/ul), FISb3, hour 3.10 to 4.10): −37%
- Average Percent Inhibition (TypeIICOL(1.6 ug/ul), FISb3, hour 4.10 to 5.10): −68%
- Average Percent Inhibition (TypeIICOL(1.6 ug/ul), FISb3, hour 5.10 to 6.10): −104%
- Average Percent Inhibition (TypeIICOL(4.9 ug/ul), FISb3, hour 0.10 to 1.10): 37%
- Average Percent Inhibition (TypeIICOL(4.9 ug/ul), FISb3, hour 1.10 to 2.10): 43%
- Average Percent Inhibition (TypeIICOL(4.9 ug/ul), FISb3, hour 1.10 to 6.60): 32%
- Average Percent Inhibition (TypeIICOL(4.9 ug/ul), FISb3, hour 2.10 to 3.10): 46%
- Average Percent Inhibition (TypeIICOL(4.9 ug/ul), FISb3, hour 3.10 to 4.10): 37%
- Average Percent Inhibition (TypeIICOL(4.9 ug/ul), FISb3, hour 4.10 to 5.10): 27%
- Average Percent Inhibition (TypeIICOL(4.9 ug/ul), FISb3, hour 5.10 to 6.10): 19%
- Average Percent Inhibition (TypeIICOL(15 ug/ul), FISb3, hour 0.10 to 1.10): 56%
- Average Percent Inhibition (TypeIICOL(15 ug/ul), FISb3, hour 1.10 to 2.10): 64%
- Average Percent Inhibition (TypeIICOL(15 ug/ul), FISb3, hour 1.10 to 6.60): 56%
- Average Percent Inhibition (TypeIICOL(15 ug/ul), FISb3, hour 2.10 to 3.10): 70%
- Average Percent Inhibition (TypeIICOL(15 ug/ul), FISb3, hour 3.10 to 4.10): 64%
- Average Percent Inhibition (TypeIICOL(15 ug/ul), FISb3, hour 4.10 to 5.10): 53%
- Average Percent Inhibition (TypeIICOL(15 ug/ul), FISb3, hour 5.10 to 6.10): 41%
- Average Percent Inhibition (TypeIICOL(44 ug/ul), FISb3, hour 0.10 to 1.10): 58%
- Average Percent Inhibition (TypeIICOL(44 ug/ul), FISb3, hour 1.10 to 2.10): 78%
- Average Percent Inhibition (TypeIICOL(44 ug/ul), FISb3, hour 1.10 to 6.60): 83%
- Average Percent Inhibition (TypeIICOL(44 ug/ul), FISb3, hour 2.10 to 3.10): 86%
- Average Percent Inhibition (TypeIICOL(44 ug/ul), FISb3, hour 3.10 to 4.10): 87%
- Average Percent Inhibition (TypeIICOL(44 ug/ul), FISb3, hour 4.10 to 5.10): 85%
- Average Percent Inhibition (TypeIICOL(44 ug/ul), FISb3, hour 5.10 to 6.10): 82%
- Average Percent Inhibition (TypeIICOL(.18 ug/ul), FISb3, hour 0.10 to 1.10): 3%
- Average Percent Inhibition (TypeIICOL(.18 ug/ul), FISb3, hour 1.10 to 2.10): 9%
- Average Percent Inhibition (TypeIICOL(.18 ug/ul), FISb3, hour 1.10 to 6.60): 2%
- Average Percent Inhibition (TypeIICOL(.18 ug/ul), FISb3, hour 2.10 to 3.10): 7%
- Average Percent Inhibition (TypeIICOL(.18 ug/ul), FISb3, hour 3.10 to 4.10): 3%
- Average Percent Inhibition (TypeIICOL(.18 ug/ul), FISb3, hour 4.10 to 5.10): 0%
- Average Percent Inhibition (TypeIICOL(.18 ug/ul), FISb3, hour 5.10 to 6.10): −3%
- Average Percent Inhibition (TypeIICOL(.55 ug/ul), FISb3, hour 0.10 to 1.10): 2%
- Average Percent Inhibition (TypeIICOL(.55 ug/ul), FISb3, hour 1.10 to 2.10): 11%
- Average Percent Inhibition (TypeIICOL(.55 ug/ul), FISb3, hour 1.10 to 6.60): 6%
- Average Percent Inhibition (TypeIICOL(.55 ug/ul), FISb3, hour 2.10 to 3.10): 12%
- Average Percent Inhibition (TypeIICOL(.55 ug/ul), FISb3, hour 3.10 to 4.10): 8%
- Average Percent Inhibition (TypeIICOL(.55 ug/ul), FISb3, hour 4.10 to 5.10): 4%
- Average Percent Inhibition (TypeIICOL(.55 ug/ul), FISb3, hour 5.10 to 6.10): −1%
- inhibition of gelatinase A by type II collagen (highest concentration (44 ug/ml), six hour time course, FlSub3): Almost complete inhibition
